{
  "source": "patent US20090170166A1",
  "proteins": {"B1": {"name": "uracil-DNA-glycosylase (UDG) (protein)", "chain": "ANELTWHDVLAEEKQQPYFLNTLQTVASERQSGVTIYPPQKDVFNAFRFTELGDVKVVILGQDPYHGPGQAHGLAFSVRPGIAIPPSLLNMYKELENTIPGFTRPNHGYLESWARQGVLLLNTVLTVRAGQAHSHASLGWETFTDKVISLINQHREGVVFLLWGSHAQKKGAIIDKQRHHVLKAPHPSPLSAHRGFFGCNHFVLANQWLEQRGETPIDWMPVLPAESE"}},
  "molecular_target": "T1, recombinant uracil-DNA-glycosylase inhibitor (rUgi), P14739",
  "T1 chain": "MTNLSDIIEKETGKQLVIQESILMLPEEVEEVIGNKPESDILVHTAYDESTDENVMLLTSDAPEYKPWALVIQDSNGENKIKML",
  "data": [
    {"protein": "B1", "values": [
      {"measurement": "digestion of DNA-dUTP by UDG 1/35 (agarose gel), without and after 10 min at 90 C", "value": "the two dilutions of Ugi indeed inhibit the digestion of DNA by UDG (lanes D and G); after a treatment of 10 minutes at 90° C., the Ugi remains active because it still inhibits the UDG (lanes J and M)"},
      {"measurement": "digestion of DNA-dUTP by UDG 1/35, 60 min at 37 C (agarose gel)", "value": "the two dilutions of Ugi indeed inhibit UDG (lanes D and G)"},
      {"measurement": "digestion of DNA-dUTP by UDG (agarose gel), UDG 1/25", "value": "at the highest concentration of UDG, the UDG activity may be inhibited by Ugi at 1/20 000 but not at 1/30 000"},
      {"measurement": "digestion of DNA-dUTP by UDG (agarose gel), UDG 1/50", "value": "at the lowest concentration of UDG, the UDG activity is inhibited both by Ugi at 1/20 000 and at 1/30 000"}
    ]}
  ]
}
